Measurements reported in patent US20210388087A1 (Chugai, published 2021).
Substitutions are numbered along the chain they refer to.

B1: CE115HA000/GLS3000 N30L (antibody, IgG1, name in Kabat numbering, V domains shown)
VH: QVQLVESGGGVVQPGRSLRLSCAASGFTFSNAWMHWVRQAPGKGLEWVAQIKAKSNNYATYYAESVKGRFTISRDDSKNSLYLQMNSLKTEDTAVYYCRYVHYGAYYGVDAWGQGTTVTVSS
VL: DIVMTQSPLSLPVTPGEPASISCRSSQSLVHSNRLTYLHWYQQKPGQAPRLLIYKVSNRFSGVPDRFSGSGSGTDFTLKISRVEAEDVGVYYCGQGTQVPYTFGQGTKLEIK
notes: one-arm IgG1
B2: CE115HA000/GLS3000 N30M (antibody, IgG1, name in Kabat numbering, V domains shown)
VH: B1 VH
VL: B1 VL with L35M
notes: one-arm IgG1
B3: CE115HA000/GLS3000 N30P (antibody, IgG1, name in Kabat numbering, V domains shown)
VH: B1 VH
VL: B1 VL with L35P
notes: one-arm IgG1
B4: CE115HA000/GLS3000 N30Q (antibody, IgG1, name in Kabat numbering, V domains shown)
VH: B1 VH
VL: B1 VL with L35Q
notes: one-arm IgG1
B5: CE115HA000/GLS3000 N30R (antibody, IgG1, name in Kabat numbering, V domains shown)
VH: B1 VH
VL: B1 VL with L35R
notes: one-arm IgG1
B6: CE115HA000/GLS3000 N30S (antibody, IgG1, name in Kabat numbering, V domains shown)
VH: B1 VH
VL: B1 VL with L35S
notes: one-arm IgG1
B7: CE115HA000/GLS3000 N30T (antibody, IgG1, name in Kabat numbering, V domains shown)
VH: B1 VH
VL: B1 VL with L35T
notes: one-arm IgG1
B8: CE115HA000/GLS3000 N30V (antibody, IgG1, name in Kabat numbering, V domains shown)
VH: B1 VH
VL: B1 VL with L35V
notes: one-arm IgG1
B9: CE115HA000/GLS3000 N30W (antibody, IgG1, name in Kabat numbering, V domains shown)
VH: B1 VH
VL: B1 VL with L35W
notes: one-arm IgG1
B10: CE115HA000/GLS3000 N30Y (antibody, IgG1, name in Kabat numbering, V domains shown)
VH: B1 VH
VL: B1 VL with L35Y
notes: one-arm IgG1
B11: CE115HA000/GLS3000 N53A (antibody, IgG1, name in Kabat numbering, V domains shown)
VH: B1 VH
VL: B1 VL with L35N, N58A
notes: one-arm IgG1
B12: CE115HA000/GLS3000 N53D (antibody, IgG1, name in Kabat numbering, V domains shown)
VH: B1 VH
VL: B1 VL with L35N, N58D
notes: one-arm IgG1
B13: CE115HA000/GLS3000 N53E (antibody, IgG1, name in Kabat numbering, V domains shown)
VH: B1 VH
VL: B1 VL with L35N, N58E
notes: one-arm IgG1
B14: CE115HA000/GLS3000 N53F (antibody, IgG1, name in Kabat numbering, V domains shown)
VH: B1 VH
VL: B1 VL with L35N, N58F
notes: one-arm IgG1
B15: CE115HA000/GLS3000 N53G (antibody, IgG1, name in Kabat numbering, V domains shown)
VH: B1 VH
VL: B1 VL with L35N, N58G
notes: one-arm IgG1
B16: CE115HA000/GLS3000 N53H (antibody, IgG1, name in Kabat numbering, V domains shown)
VH: B1 VH
VL: B1 VL with L35N, N58H
notes: one-arm IgG1
B17: CE115HA000/GLS3000 N53I (antibody, IgG1, name in Kabat numbering, V domains shown)
VH: B1 VH
VL: B1 VL with L35N, N58I
notes: one-arm IgG1
B18: CE115HA000/GLS3000 N53K (antibody, IgG1, name in Kabat numbering, V domains shown)
VH: B1 VH
VL: B1 VL with L35N, N58K
notes: one-arm IgG1
B19: CE115HA000/GLS3000 N53L (antibody, IgG1, name in Kabat numbering, V domains shown)
VH: B1 VH
VL: B1 VL with L35N, N58L
notes: one-arm IgG1
B20: CE115HA000/GLS3000 N53M (antibody, IgG1, name in Kabat numbering, V domains shown)
VH: B1 VH
VL: B1 VL with L35N, N58M
notes: one-arm IgG1
B21: CE115HA000/GLS3000 N53P (antibody, IgG1, name in Kabat numbering, V domains shown)
VH: B1 VH
VL: B1 VL with L35N, N58P
notes: one-arm IgG1
B22: CE115HA000/GLS3000 N53Q (antibody, IgG1, name in Kabat numbering, V domains shown)
VH: B1 VH
VL: B1 VL with L35N, N58Q
notes: one-arm IgG1
B23: CE115HA000/GLS3000 N53R (antibody, IgG1, name in Kabat numbering, V domains shown)
VH: B1 VH
VL: B1 VL with L35N, N58R
notes: one-arm IgG1
B24: CE115HA000/GLS3000 N53S (antibody, IgG1, name in Kabat numbering, V domains shown)
VH: B1 VH
VL: B1 VL with L35N, N58S
notes: one-arm IgG1
B25: CE115HA000/GLS3000 N53T (antibody, IgG1, name in Kabat numbering, V domains shown)
VH: B1 VH
VL: B1 VL with L35N, N58T
notes: one-arm IgG1
B26: CE115HA000/GLS3000 N53V (antibody, IgG1, name in Kabat numbering, V domains shown)
VH: B1 VH
VL: B1 VL with L35N, N58V
notes: one-arm IgG1
B27: CE115HA000/GLS3000 N53W (antibody, IgG1, name in Kabat numbering, V domains shown)
VH: B1 VH
VL: B1 VL with L35N, N58W
notes: one-arm IgG1
B28: CE115HA000/GLS3000 N53Y (antibody, IgG1, name in Kabat numbering, V domains shown)
VH: B1 VH
VL: B1 VL with L35N, N58Y
notes: one-arm IgG1
B29: CE115HA000/GLS3000 P95A (antibody, IgG1, name in Kabat numbering, V domains shown)
VH: B1 VH
VL: B1 VL with L35N, P100A
notes: one-arm IgG1
B30: CE115HA000/GLS3000 P95D (antibody, IgG1, name in Kabat numbering, V domains shown)
VH: B1 VH
VL: B1 VL with L35N, P100D
notes: one-arm IgG1
B31: CE115HA000/GLS3000 P95E (antibody, IgG1, name in Kabat numbering, V domains shown)
VH: B1 VH
VL: B1 VL with L35N, P100E
notes: one-arm IgG1
B32: CE115HA000/GLS3000 P95G (antibody, IgG1, name in Kabat numbering, V domains shown)
VH: B1 VH
VL: B1 VL with L35N, P100G
notes: one-arm IgG1
B33: CE115HA000/GLS3000 P95L (antibody, IgG1, name in Kabat numbering, V domains shown)
VH: B1 VH
VL: B1 VL with L35N, P100L
notes: one-arm IgG1
B34: CE115HA000/GLS3000 P95S (antibody, IgG1, name in Kabat numbering, V domains shown)
VH: B1 VH
VL: B1 VL with L35N, P100S
notes: one-arm IgG1
B35: CE115HA000/GLS3000 Q27D (antibody, IgG1, name in Kabat numbering, V domains shown)
VH: B1 VH
VL: B1 VL with Q27D, L35N
notes: one-arm IgG1
B36: CE115HA000/GLS3000 Q27E (antibody, IgG1, name in Kabat numbering, V domains shown)
VH: B1 VH
VL: B1 VL with Q27E, L35N
notes: one-arm IgG1
B37: CE115HA000/GLS3000 Q27L (antibody, IgG1, name in Kabat numbering, V domains shown)
VH: B1 VH
VL: B1 VL with Q27L, L35N
notes: one-arm IgG1
B38: CE115HA000/GLS3000 Q27P (antibody, IgG1, name in Kabat numbering, V domains shown)
VH: B1 VH
VL: B1 VL with Q27P, L35N
notes: one-arm IgG1
B39: CE115HA000/GLS3000 Q27R (antibody, IgG1, name in Kabat numbering, V domains shown)
VH: B1 VH
VL: B1 VL with Q27R, L35N
notes: one-arm IgG1
B40: CE115HA000/GLS3000 Q90A (antibody, IgG1, name in Kabat numbering, V domains shown)
VH: B1 VH
VL: B1 VL with L35N, Q95A
notes: one-arm IgG1
B41: CE115HA000/GLS3000 Q90D (antibody, IgG1, name in Kabat numbering, V domains shown)
VH: B1 VH
VL: B1 VL with L35N, Q95D
notes: one-arm IgG1
B42: CE115HA000/GLS3000 Q90E (antibody, IgG1, name in Kabat numbering, V domains shown)
VH: B1 VH
VL: B1 VL with L35N, Q95E
notes: one-arm IgG1
B43: CE115HA000/GLS3000 Q90P (antibody, IgG1, name in Kabat numbering, V domains shown)
VH: B1 VH
VL: B1 VL with L35N, Q95P
notes: one-arm IgG1
B44: CE115HA000/GLS3000 Q90S (antibody, IgG1, name in Kabat numbering, V domains shown)
VH: B1 VH
VL: B1 VL with L35N, Q95S
notes: one-arm IgG1
B45: CE115HA000/GLS3000 Q90Y (antibody, IgG1, name in Kabat numbering, V domains shown)
VH: B1 VH
VL: B1 VL with L35N, Q95Y
notes: one-arm IgG1
B46: CE115HA000/GLS3000 Q93A (antibody, IgG1, name in Kabat numbering, V domains shown)
VH: B1 VH
VL: B1 VL with L35N, Q98A
notes: one-arm IgG1
B47: CE115HA000/GLS3000 Q93D (antibody, IgG1, name in Kabat numbering, V domains shown)
VH: B1 VH
VL: B1 VL with L35N, Q98D
notes: one-arm IgG1

biological target: T1, CD3 epsilon homodimer protein (UniProt P07766 23-126); assay: SPR, antibody over immobilised CD3e homodimer;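 further: SPR at 25 °C with CD3 epsilon homodimer amine-coupled to a CM4 sensor chip and antibody flowed over as analyte in HBS-EP+ running buffer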
T1 construct: also called CD3 (CD3 epsilon)
T1 sequence (P07766 23-126): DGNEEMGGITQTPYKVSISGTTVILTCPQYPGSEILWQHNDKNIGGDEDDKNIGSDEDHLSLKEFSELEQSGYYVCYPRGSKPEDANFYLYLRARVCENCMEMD

| Binder | KD ratio to GLS3000 |
| --- | --- |
| B1 | 1.19 |
| B2 | 1.2 |
| B3 | 12.1 |
| B4 | 1 |
| B5 | 1.73 |
| B6 | 10.6 |
| B7 | 12.7 |
| B8 | 2.62 |
| B9 | 0.97 |
| B10 | 1.03 |
| B11 | 0.82 |
| B12 | 2.8 |
| B13 | 2.47 |
| B14 | 0.96 |
| B15 | 1.33 |
| B16 | 1.31 |
| B17 | 2.69 |
| B18 | 1.05 |
| B19 | 1.62 |
| B20 | 1.21 |
| B21 | 0.98 |
| B22 | 1.28 |
| B23 | 1.56 |
| B24 | 0.88 |

| Binder | KD ratio to GLS3000 |
| --- | --- |
| B25 | 2.68 |
| B26 | 2.14 |
| B27 | 1.01 |
| B28 | 0.99 |
| B29 | 0.87 |
| B30 | 2.37 |
| B31 | 1.01 |
| B32 | 1.94 |
| B33 | 11.7 |
| B34 | 1.19 |
| B35 | 0.89 |
| B36 | 0.99 |
| B37 | 0.86 |
| B38 | 2.16 |
| B39 | 1.06 |
| B40 | 0.89 |
| B41 | 11.1 |
| B42 | 0.91 |
| B43 | 15.9 |
| B44 | 0.96 |
| B45 | 38.3 |
| B46 | 0.65 |
| B47 | 0.72 |
